Patent US20240343803A1 (SHANDONG SIMCERE BIOPHARMACEUTICAL, published 2024)
Residue numbers refer to the chain shown, from its start.

T1: full-length human TIGIT on CHO-K1 cells (CHO-K1 human TIGIT) (human, UniProt Q495A1 22-244)
T1 construct: NCBI XP_024309156.1; entry includes the signal peptide; also called high expression strain 1D2; medium expression strain 2D10
T1 sequence: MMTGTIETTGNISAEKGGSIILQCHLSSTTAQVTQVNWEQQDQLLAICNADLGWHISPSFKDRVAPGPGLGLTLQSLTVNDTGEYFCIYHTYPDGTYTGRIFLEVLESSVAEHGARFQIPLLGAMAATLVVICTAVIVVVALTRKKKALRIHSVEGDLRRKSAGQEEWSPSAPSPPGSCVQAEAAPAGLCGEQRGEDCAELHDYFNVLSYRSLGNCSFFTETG

T2: TIGIT on human PBMCs stimulated by SEA (human, UniProt Q495A1 22-244)
T2 construct: whole, on cells
T2 sequence (looked up): T1 sequence

T3: cynomolgus monkey PVRIG (Novoprotein, Cat NO. C09B) (cynomolgus monkey, UniProt A0A2K5WVV8 41-171)
T3 construct: bought reagent; also called cynomolgus monkey PVRIG recombinant protein
T3 sequence: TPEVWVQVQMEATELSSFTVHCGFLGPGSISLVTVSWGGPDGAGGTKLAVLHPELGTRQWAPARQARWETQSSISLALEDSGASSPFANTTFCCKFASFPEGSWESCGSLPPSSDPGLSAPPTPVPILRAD

T4: human PVRIG-his (AcroBiosystems, Cat NO. PVG-H52H4) (human, UniProt Q6DKI7 41-171, limits assumed)
T4 construct: treated as the same protein; also called human PVRIG-His protein; Human PVRIG-His, Acro C227P1-9ARF1-T4
T4 sequence (looked up): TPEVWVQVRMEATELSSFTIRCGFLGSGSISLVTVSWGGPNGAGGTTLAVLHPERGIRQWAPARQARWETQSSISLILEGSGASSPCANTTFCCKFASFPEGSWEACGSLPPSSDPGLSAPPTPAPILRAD

T5: cynomolgus monkey PVRIG on FlpinCHO-cyno PVRIG cells (cynomolgus monkey, UniProt A0A2K5WVV8 41-322)
T5 construct: whole, on cells; also called FlpinCHO-cynomolgus monkey PVRIG
T5 sequence: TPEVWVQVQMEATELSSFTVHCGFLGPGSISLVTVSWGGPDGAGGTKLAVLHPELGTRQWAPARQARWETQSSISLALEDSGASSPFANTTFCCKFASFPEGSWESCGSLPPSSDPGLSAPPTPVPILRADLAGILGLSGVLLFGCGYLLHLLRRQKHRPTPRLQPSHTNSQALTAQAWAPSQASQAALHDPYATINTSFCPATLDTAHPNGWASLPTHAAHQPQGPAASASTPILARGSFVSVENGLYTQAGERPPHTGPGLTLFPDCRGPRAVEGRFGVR

B1: TIGIT-002-H4L3 (antibody, V domains shown)
VH: EVQLQESGPGLVKPSETLSLTCAVSGYSITSDSWNWIRQPPGKKLEYIGYISYSGNTYYNPSLKSRVTISRDTSKNQFSLKLSSVTAADTAVYYCARLDFSNYGGAVDYWGQGTTVTVSS
VL: DIVMTQSPDSLAVSLGERATINCKASQNVRTAVAWYQQKPGQSPKLMIYSASYRYTGVPDRFSGSGSGTDFTLTISSLQAEDVAVYYCQQYYTTPWTFGGGTKVEIK
notes: humanized; 002.VH4 with 002.VL3
B2: TIGIT-005-H2L1d (antibody, V domains shown)
VH: EVQLVQSGAEVKKPGASVKVSCKASGYAFTNYLIEWVRQAPGQRLEWMGVINPGSGGTNYKEKFKGRVTITADKSSSTAYMELSSLRSEDTAVYYCARGEYFFFDYWGQGTTVTVSS
VL: B1 VL with N28H, R30S, T31N, Q38H, M47L, Y91H, T93N, W96H
notes: humanized; 005.VH2 with 005.VL1d
B3: COM701-hIgG1 (antibody, V domains shown)
VH: QVQLVQSGAEVKKPGASVKVSCKASGYTFTDYNINWVRQAPGQGLEWMGYIYPYIGGSGYAQKFQGRVTMTRDTSTSTVYMELSSLRSEDTAVYYCAREDKTARNAMDYWGQGTLVTVSS
VL: DIQMTQSPSSLSASVGDRVTITCRVSENIYSNLAWYQQKPGKAPKLLIYEATNLAEGVPSRFSGSGSGTDFTLTISSLQPEDFATYYCQHFWGTPYTFGQGTKLEIK
notes: human IgG1 format by its name

Key:
[1] = molecular target: T1, full-length human TIGIT on CHO-K1 cells …; assay: FACS, CHO-K1 human TIGIT low expression strain
Procedure: (§1) The collected cells were washed once with PBS (Hyclone, Cat NO. SH30256), resuspended to 2×10⁵/50 μL with 1% BSA-PBS. The antibodies were diluted to 80 nM with 1% BSA-PBS (diluted by 3-fold serial dilution for 12 concentration points). The 50 μL cells were then mixed with 50 μL diluted antibodies, and then incubated at 4° C. for 60 minutes. […] After washing twice with PBS, the cell samples were resuspended with 1% BSA-PBS, 100 μL/well and then analyzed by flow cytometry (BD, Canto II).

[2] = molecular target: T1, full-length human TIGIT on CHO-K1 cells …; assay: FACS, CHO-K1 human TIGIT medium expression strain
Procedure: as §1

[3] = molecular target: T6, full-length cynomolgus monkey TIGIT on CHO-K1 cells (CHO-K1 cynomolgus monkey TIGIT) (cynomolgus monkey); assay: FACS, CHO-K1 cynomolgus monkey TIGIT cells
T6 construct: NCBI XP_015300911.1; also called cynomolgus monkey TIGIT cells
Procedure: as §1

[4] = molecular target: T2, TIGIT on human PBMCs stimulated by SEA; assay: FACS, SEA-stimulated human PBMCs
Procedure: The fresh human PBMCs (AllCells, PB004-C) were adjusted to a density of 5×10⁵/mL, added with SEA (Toxin Technology, Inc., AT101) to 100 ng/mL, and cultured at 37° C. with 5% CO₂ for 3 days. The cells were collected 3 days later, washed once with PBS (Hyclone, SH30256), added with Fc Block (BD, 564220) and then incubated at 4° C. for 10 minutes. After washing twice with PBS, the PBMCs were resuspended to 2×10⁵/50 μL with 1% BSA-PBS. The humanized antibodies were diluted to 80 nM with 1% BSA-PBS (diluted by 3-fold serial dilution for 12 concentration points). The 50 μL cells were then mixed with 50 μL diluted antibodies, and then incubated at 4° C. for 60 minutes. […] After washing twice with PBS, the cell samples were resuspended with 1% BSA-PBS, 100 µL/well, and then analyzed by flow cytometry (BD, Canto II).

[5] = molecular target: T1, full-length human TIGIT on CHO-K1 cells …; assay: competition FACS; blocked: Bio-CD155-His binding to CHO-K1 human TIGIT cells
Procedure: The collected cells were washed once with PBS (Hyclone, SH30256), resuspended to 2×10⁵/40 μL with 1% BSA-PBS. The antibodies were diluted to 210 nM with 1% BSA-PBS (diluted by 3-fold serial dilution for 12 concentration points). […] The 40 μL cells were then mixed with 40 μL diluted antibodies and 40 μL diluted Bio-CD155-His, and then incubated at 4° C. for 60 minutes. The cells were washed twice with PBS, resuspended with APC labeled streptavidin (dilution ratio 1:1700, Biolegend, 405243), 100 μL/well, and incubated at 4° C. for 40 minutes. The cell samples were washed twice with PBS, resuspended with 1% BSA-PBS (100 μL/well) and then analyzed by flow cytometry (BD, Canto II).

[6] = molecular target: T1, full-length human TIGIT on CHO-K1 cells …; assay: FACS, CHO-K1 human TIGIT high expression strain
Procedure: as §1

[7] = molecular target: T3, cynomolgus monkey PVRIG (Novoprotein, …); assay: ELISA, coated cynomolgus monkey PVRIG
[8] = molecular target: T4, human PVRIG-his (AcroBiosystems, Cat …); assay: ELISA, coated human PVRIG-his
[9] = molecular target: T5, cynomolgus monkey PVRIG on …; assay: FACS, FlpinCHO-cyno PVRIG cells
[10] = molecular target: T5, cynomolgus monkey PVRIG on …; assay: FACS, FlpinCHO cynomolgus monkey PVRIG cells
Procedure: CHO-K1 stable cells ([…]-61™) transfected with human or cynomolgus monkey PVRIG high expression plasmids were named FlpinCHO-hPVRIG and FlpinCHO-cynoPVRIG. […] After discarding the cell culture medium, the cells were rinsed with PBS and digested for 8-10 minutes by adding 1 mL Versene (Gibico, 15040-066). The Ham's F12 (Gibico, 21127-022) complete medium containing 10% FBS was then added to terminate the digestion and acquire cell suspension. After cell counting, an appropriate amount of cell suspension was centrifuged at 350×g to remove the supernatant, washed twice with PBS, stained with Zombie violet (Biolegend, 423114) and incubated at room temperature for 20 minutes. After incubation, the cells were added with staining buffer (2% FBS+PBS) to stop staining, centrifuged at 350×g to remove the supernatant, washed twice and resuspended with staining buffer to a density of 2×10⁶ cells/mL. The cells were plated into a 96-well plate (50 μL of cell suspension per well) for further use. The antibodies were diluted from the highest concentration of 46 nM (two-fold concentration) with staining buffer by 3.3-fold serial dilution. The diluted antibodies were added to the well containing 50 μL of cell suspension. […] After staining, the cells were washed twice with staining buffer, finally resuspended with 200 μL staining buffer and analyzed by flow cytometry (BD, Canto II).

[11] = molecular target: T5, cynomolgus monkey PVRIG on …; assay: FACS, FlpinCHO-cyno PVRIG cells; remark: listed apart in the source
Procedure: After discarding the cell culture medium, the cells were rinsed with PBS and digested for 8-10 minutes by adding 1 mL Versene (Gibico, 15040-066). The Ham's F12 (Gibico, 21127-022) complete medium containing 10% FBS was then added to terminate the digestion and acquire cell suspension. After counting with a cell counter (Beckman Coulter, Vi-CELL), an appropriate amount of cell suspension was centrifuged at 350×g to remove the supernatant, washed twice with PBS, stained with Zombie violet (Biolegend, 423114) and incubated at room temperature for 20 minutes. After incubation, the cells were added with staining buffer (2% FBS+PBS) to stop staining, centrifuged at 350×g to remove the supernatant, washed twice and resuspended with staining buffer to a density of 2×10⁶ cells/mL. The cells were plated into a 96-well plate (50 μL of cell suspension per well) for further use. The antibodies were diluted from the highest concentration of 46 nM (two-fold concentration) with staining buffer by 3.3-fold serial dilution. The diluted antibodies were added to the well containing 50 μL of cell suspension. The plate was placed on a microplate shaker at 400 rpm for 1 minute to fully mix the antibodies and cells, and then incubated at 4° C. for 30 minutes. After the incubation, the cells were washed twice with staining buffer (200 μL per well) and centrifuged at 350×g for 5 minutes to discard the supernatant. The PE goat anti-human IgG Fc antibody (ebioscience, 12-4998-82) was diluted 250 times with staining buffer, added into the washed wells (100 μL per well), mixed well, and stained at 4° C. for 30 minutes. After staining, the cells were washed twice with staining buffer, finally resuspended with 200 μL staining buffer and analyzed by flow cytometry (BD, Canto II). […] An antibody binding curve was drawn with concentration of antibodies as the abscissa and the corresponding Mean Fluorescence Intensity (MFI) as the ordinate. The AUC value of the curve was calculated by using a Four Parameter Logistic Fit (GraphPadPrism9). […]

T6 sequence (chain, as listed by the source limits assumed): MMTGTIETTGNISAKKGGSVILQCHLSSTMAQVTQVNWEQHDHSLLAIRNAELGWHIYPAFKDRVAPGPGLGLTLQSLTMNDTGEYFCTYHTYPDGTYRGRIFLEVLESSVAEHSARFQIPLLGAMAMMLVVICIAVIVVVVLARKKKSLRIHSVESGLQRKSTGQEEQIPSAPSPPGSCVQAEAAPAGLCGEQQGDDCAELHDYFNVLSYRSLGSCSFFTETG

| Binder | EC50 (read off the curve) [1] [pM] | EC50 (read off the curve) [2] [pM] | EC50 (read off the curve) [3] [pM] | EC50 (read off the curve) [4] [pM] | IC50 (read off the curve) [5] [pM] | EC50 (read off the curve) [6] [pM] | EC50 (read off the curve) [7] [pM] | EC50 (read off the curve) [8] [pM] | EC50 (read off the curve) [9] [pM] | EC50 (read off the curve) [10] [pM] | EC50 (read off the curve) [11] [pM] |
| --- | --- | --- | --- | --- | --- | --- | --- | --- | --- | --- | --- |
| B1 | ~100 | ~100 | ~400 | ~60 | ~90 | ~200 | – | – | – | – | – |
| B2 | ~90 | ~100 | ~400 | ~90 | ~90 | ~200 | – | – | – | – | – |
| B3 | – | – | – | – | – | – | ~40 | ~60 | ~600 | ~500 | ~500 |
